This passage reports Ratio/Fc-WT and EC50 results from patent USRE46585 (LABORATOIRE FRANCAIS DU FRACTIONNEMENT ET DES …, dated 2017).

B1: S4A_07 (other)
chain: CPPCPAPELLGGPSVFLFPPKPKDTLMISRTPEVTCVVVDVSHEDPEVKFNWYVDGVEVHNAKTKPREEQYNSTYRVVSVLPVLHQDWLNGKEYKCKVSNKALPAPIEKTISKAKGQPREPQVYTLPPSRDELTKNQVSLTCLVKGFYPSDIAVEWESNGQPETNYKTTPPVLDSDGSFFLYSKLTVDKSRWQQGNVFSCSVMHEALHYHYTQKSLSLSPGK
notes: EU numbering
B2: S4A_17 (other)
chain: CPPCPAPELLGGPSVFLFPPKPKDTLMISRTPEVTCVVVDVSHEDPEVKFNWYVDGVEVHNAKTKPREEQYNSTYRAVSVLTVLHQDWLNGKEYKCKVSNKALPAPIEKTISKAKGQPREPQVYTLPPSRDELTKNQVSLTCLVKGFYPSDIAVEWESNGQPETNYKTTPPVLDSDGSFFLYSKLTVDKSRWQQGNVFSCSVMHEALHSHYTQKSLSLSPGK
notes: EU numbering
B3: S5A_26 (other)
chain: CPPCPAPELLGGPSVFLFPPKPKDTLMISRTPEVTCVVVDVSHEDPEVKFNWYVDGVEVHNAKTKPREEQYNSTYRVVSVLTVLHRDWLNGKEYKCKVSNKALPAPIERTISKAKGEPREPQVYTLPPSRDELTKNQVSLTCLVKGFYPSDIAVEWESNGQPENNYKTTPPVLDSDGSFFLYSKLTVDKSRWQQGNVFSCSVMHEALHYHYTQKSLSLSPGK
notes: EU numbering
B4: S4A_25 (other)
chain: CPPCPAPELLGGPSVFLFPPKPKDTLMISRTPEVTCVVVGVSHEDPEVKFNWYVDGVEVHNAKTKPREEQYNSTYRVVSVLTVLHQDWLNGKEYKCKVSNKALPAPIEKTISKAKGQPREPQVYTLPPSRDELTKNQVSLTCLVKGFYPSDIAVEWESNGQPENNYKTTPPVLDSDGSFFLYTKLTVDKSRWQQGNVFSCSVMHEALHYHYTQKSLSLFPGK
notes: EU numbering
B5: S4A_14 (other)
chain: CPPCPAPELLGGPSVFLFPPKPKDTLMISRTPEVTCVVVDVSHEDPEVKFSWYVDGVEVHNAKTKPREEQYNSTYRVVSVLTVLHQDWLNGKEYKCKVSNKALPAPIEKTISKAKGQPREPQVYTLPPSRDELTKNQVSLTCLVKGFYPSDIVVEWESNGQPENNYKTTPPVLDSDGSFFLYSKLTVDKSRWQQGNVFSCSVMHEALHSHYTQKSLSLSPGK
notes: EU numbering
B6: S4A_42 (other)
chain: CPPCPAPELLGGPSVFLFPPKPKDTLMISRTPEVTCVVADVSHEDPEVKFNWYVDGVEVHNAKTKPREEQYNSTYRVVSVLTVLHQDWLNGKEYKCKVSNKALPAPIEKTISKAKGQPREPQVYTLPPSRDELTKNQVSLTCLVKGFYPSDIAVEWESNGQPENNYKTTPPVLDSDGSFFLYSKLTVDKSRWQQGNVFSCSVMHEALHYHYTQKSLSLSPAK
notes: EU numbering
B7: S5A_07 (other)
chain: CPPCPAPELLGGPSVFLFPPKPKDTLMISRTPEVTCVVVDVSHEDPEVKFNWYVDGVEVHNAKTKPREEQYNSTYRVVSVLTVLHQDWLNGKEYKCKVSNKALPAPIEKTISKAKGQPREPQVYTLPPSRDELTKNQVSLTCLVKGFYPSDIVVEWESNGQPENNYKTTPPVLDSDGSFFLYSKLTVDKSRWQQGTVFSCSVMHEALHSHYTQKSLSLSPGK
notes: EU numbering
B8: S6A_48 (other)
chain: CPPCPAPELLGGPSVFLFPPKPKDTLMISRTPEVTCVVVDVSHEDPEVKFNWYVDGVEVHNAKTKPREEQYNSTYRVVSVLTVLHQDWLNGKEYKCKVSNKALPAPIEKTISKAKGQPREPQVYTLPPSQDELTKNQVSLTCLVKGFYPSDIAVEWESNGQPENNYENTPPVLDSDGSFFLYSKLTVDKSRWQQGNVFSCTVMHEALHYHYTQKSLSLSPGK
notes: EU numbering
B9: SSA_20 (other)
chain: CPPCQAPELLGGPSVYLFPPRPKDTLMISRTPEVTCVVVDVSHEEPEVKFNWYVDGVEVHNAKTKPREEQYNSTYRVVSVLTVLHQDWLNGKEYKCKVSNKALPAPIEKTISKAKGQPREPQVYTLPPSRDELTKNQVSLTCLVKGFYPSDIAVEWESNGQPENNYKTTPPVLDSDGSFFLYSKLTVDKSRWQQGNVFSCSVMHEALHNHYTQKSLSLSPGK
notes: EU numbering; also called S5A_20 (probable reading)
B10: S4A_36 (other)
chain: CPPCQAPELLGGPSVFLFPPKPKDTLMISRTPEVTCVVADVSHEDPEVKFNWYVDGVEVHNAKTKPREEQYNSTYRVVSVLTVLHQDWLNGKEYKCKVSNKALPAPIEKTISKAKGQPREPQVYTLSPSRDELTKNQVSLTCLVKGFYPSDIVVEWESNGQPENNYKTTPPVLDSDGSFFLYSKLTVDKSRWQQGNVFSCSVMHEALHNHYTQKSLSLSPGK
notes: EU numbering
B11: S5A_43 (other)
chain: CPPCSAPELLGGPSVFLFPPKPKDTLMISRTPEVTCVVVDVSHEDPEVKFNWYVDGVELHNAKTKPREEQYNSTYRVVSVLTVLHQDWLNGKEYKCKVSNKALPAPIEKTISKAKGQPREPQVYTLPPSRDELTKNQVSLTCLVKGFYPSDIVVEWESNGQPENNYKTTPPVLDSDGSFFLYSKLTVDKSRWQQGNVFSCSVMHEALHNHYTQKSLSLSPGK
notes: EU numbering
B12: S4A_24 (other)
chain: CPPCPAPELLGGPSVFLFPPKPKDTLMISRTPEVTCVVEDVSHEDPEVKFNWYVDGVEVHNAKTKPREEQYNSTYCVVSVLTVLHQDWLNGKEYKCKVSNKALPAPIEKTISKAKGQPREPQVYTLPPSRDELTKNQVSLTCLVKGFYPSDIVVEWGSNGQPENNYKTTPPVLDSDGSFFLYSKLTVDKSRWQQGNVFSCSVMHEALHNHYTQKSLSLSPGK
notes: EU numbering
B13: C6A_66 (soluble recombinant Fc polypeptide) (other)
chain: CPPCPAPELLGGPSVFLFPPKPKDTLMISRTPEVTCVVVDVSHEDPEVKFNWYVDGVEVHNAKTKPREQYNSTYRVVSVLPVLHQDWLNGKEYKCKVSNKALPAPIEKTISKAKGQPREPQVYTLPPSRDELTKNQVSLTCLVKGFYPSDIAVEWESNGQPENNYKTTPPVLDSDGSFFLYSKLTVDKSRWQQGNVFSCSVMHEALHYHYTQKSLSLSPGK
notes: EU numbering; E. coli periplasmic expression; E294del is a deletion; not shown: C-terminal 6xHis tag and V5 tag
B14: T5A_74 (soluble recombinant Fc polypeptide) (other)
chain: CPPCPAPELLGGPSVFLFPPKPKDTLMISRTPEVTCVVVDVSHEDPEVKFNWYVDGVEVHNAKTKPREEQYNSTYRVVSVLTVLHQDWLDGKEYKCKVSNKALPVPIEKTISKAKGQPREPQVYTLPPSRDELTKDQVSLTCLVKGFYPSDIVVEWESNGQPENNYKTTPPVLDSDGSFFLYSKLTVDKSRWQQGNVFSCSVMHEALHYHYTQKSLSLSPGK
notes: EU numbering; E. coli periplasmic expression; not shown: C-terminal 6xHis tag and V5 tag
B15: C6A_60 (soluble recombinant Fc polypeptide) (other)
chain: CPPCSAPELLGGPSVFLFPPKPKDTLMISRTPEVTCVVVDVSHEDPEVKFNWYVDGVEVHNAKTKPREEQYNSTYRVVSVLTVLHQDWLDGKEYKCKVSNKALPAPIEKTISKAKGQPREPQVYTLPPSRDELTKNQVSLTCLVKGFYPSDIAVEWESNGQPENNYKTTPPVLDSDGSFFLYSKLTVDKSRWQQGNVFSCSVLHEALHYHYTQKSLSLSPGK
notes: as for B14

In the first experiment the target is T1, FcRn-p3 fusion protein (human, UniProt P55899 24-297; P61769 21-119).
T1 construct: baculovirus expressed; coated on ELISA wells; not shown: amino terminal part of bacteriophage p3 protein and CVDE protein
T1 sequence (P55899 24-297, chain 1 of 2): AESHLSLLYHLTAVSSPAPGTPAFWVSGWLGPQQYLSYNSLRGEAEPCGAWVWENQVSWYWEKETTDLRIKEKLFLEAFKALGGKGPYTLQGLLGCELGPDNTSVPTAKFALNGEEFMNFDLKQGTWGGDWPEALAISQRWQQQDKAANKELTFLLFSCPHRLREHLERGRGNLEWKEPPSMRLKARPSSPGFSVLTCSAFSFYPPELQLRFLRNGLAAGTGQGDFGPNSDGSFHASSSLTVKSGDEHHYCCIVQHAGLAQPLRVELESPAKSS
T1 sequence (P61769 21-119, chain 2 of 2): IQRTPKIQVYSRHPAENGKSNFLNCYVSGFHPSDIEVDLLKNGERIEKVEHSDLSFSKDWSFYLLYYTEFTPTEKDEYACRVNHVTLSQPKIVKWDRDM
As to the kind of experiment: phage ELISA pH6.
Turning to B1, the Ratio/Fc-WT is 6.6 fold.

B2: the Ratio/Fc-WT was found to be 3.8 fold. Regarding B3, the Ratio/Fc-WT was 7.9 fold. On the same count and under the same terms, in the case of B4 it was 4.2 fold; in that of B5, 5.9 fold.

For B6, the Ratio/Fc-WT came to 4.2 fold. On the same count and under the same terms, in the case of B7 it was 5.1 fold; in that of B8, 4.4 fold. Same read-out and setting: in the case of B9 it was 4.3 fold; in that of B10, 4.5 fold.

In the case of B11, the Ratio/Fc-WT was found to be 5.7 fold. As for B12, the Ratio/Fc-WT is 5.4 fold.

Another experiment deals with T1, FcRn-p3 fusion protein. Briefly: ELISA pH6, soluble Fc on coated FcRn-p3. On the technique in general: ELISA stands for enzyme-linked immunosorbent assay.
The EC50 is the concentration that produces a half-maximal response. Low readings indicate a more potent agent, high ones a less potent agent. Turning to B13, the concentration for a half-maximal effect (EC50) stood at 4.9 nM. Same read-out and setting: the result for B14 reads 5.5 nM; that for B15, 2.6 nM.
